Article PMC4115230, “Lipid–Protein Nanodiscs Offer New Perspectives for Structural and Functional Studies of Water-Soluble Membrane-Active Peptides” (Acta Naturae, 2014)

What was measured:
[1] = molecular target: T1, Membrane scaffold protein (MSP): recombinant 44-243 fragment of human apolipoprotein A1 with an N-terminal … (human, Printed limits 44-243 are in mature numbering: mature apoA-I is precursor 25-267 (243 aa), so residue 243 is the C-terminus and the offset is +24. N-terminal His6 tag omitted. Each nanodisc contains t); assay: NMR titration; VSTx1 sample (20 μM by the legend of Fig. 2, 10 mM Tris-Ac, pH 7.0, no added salt) titrated with a lipid-free MSP solution (0.7 mM); 1D 1H-NMR signal intensity taken as free peptide; 40-45 °C; fits to partition equilibrium (eq. 1) and Langmuir isotherm (eq. 2); MSP concentration and n counted per two MSP molecules (MSP×2); details: both partners purified
[2] = molecular target: T1, Membrane scaffold protein (MSP): …; assay: as above; details: both partners purified; remark: listed apart in the source

T1 sequence (chain, as listed by the source): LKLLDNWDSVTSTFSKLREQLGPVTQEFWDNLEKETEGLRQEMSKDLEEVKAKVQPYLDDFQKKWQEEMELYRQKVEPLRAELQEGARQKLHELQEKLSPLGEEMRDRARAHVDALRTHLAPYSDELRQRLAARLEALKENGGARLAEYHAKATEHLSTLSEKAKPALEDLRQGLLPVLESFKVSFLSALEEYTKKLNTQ

B1: VSTx1, voltage sensor toxin from Grammostola spatulata spider venom (recombinant analogue with additional N-terminal Gly-Ser) (peptide)
chain: GSECGKFMWKCKNSNDCCKDLVCSSRWKWCVLASPF
notes: additional N-terminal Gly-Ser residues left by the hydrolysis with thrombin; VSTx1 toxin from Grammostola spatulata spider venom, 34 AA, 4010 Da; three disulfide bonds (cysteine knot); The gene was built from synthetic oligonucleotides; also called VSTx1 toxin; recombinant VSTx1 analogue; not shown: thioredoxin (TRX), N-terminal, cleaved
- stoichiometry N [1]: 1.6
- Ka [2]: 50000 ± 0.02 M⁻¹
- stoichiometry N [2]: 3.2 ± 0.9
